From the supplement of paper PMC10567573

B1: USP39 (parent)
chain: FQGSMRIFTKKLPHPDLPAEEKEQ

Variants of: B1
Assay: protein stability index of a GFP-peptide fusion (GPS, HEK-293T) (PSI 1-6); higher = more stable
Settings: c terminus: a fixed tail appended
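Also: lentivirally expressed fusions sorted by FACS into six bins by GFP to DsRed ratio, PSI derived from sequencing read proportions per bin multiplied by bin number.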

| Variant | protein stability index |
| --- | --- |
| FQGSMRIFDKKLPHPDLPAEEKEQ [T9D] | 2.73 |
| FQGSMRIFGKKLPHPDLPAEEKEQ [T9G] | 2.25 |
| FQGSSRIFTKKLPHPDLPAEEKEQ [M5S] | 1.61 |
| FQGSLRIFTKKLPHPDLPAEEKEQ [M5L] | 2.01 |
| FQGSQRIFTKKLPHPDLPAEEKEQ [M5Q] | 2.29 |
| FQGSKRIFTKKLPHPDLPAEEKEQ [M5K] | 2.07 |
| FQGSGRIFTKKLPHPDLPAEEKEQ [M5G] | 1.73 |
| FQGSYRIFTKKLPHPDLPAEEKEQ [M5Y] | 1.85 |
| FQGSTRIFTKKLPHPDLPAEEKEQ [M5T] | 1.61 |
| FQGSDRIFTKKLPHPDLPAEEKEQ [M5D] | 2.11 |
| FQGSWRIFTKKLPHPDLPAEEKEQ [M5W] | 2.14 |
| FQGSRRIFTKKLPHPDLPAEEKEQ [M5R] | 1.89 |
| FQGSFRIFTKKLPHPDLPAEEKEQ [M5F] | 1.89 |
| FQGSARIFTKKLPHPDLPAEEKEQ [M5A] | 2.1 |
| FQGSNRIFTKKLPHPDLPAEEKEQ [M5N] | 2.15 |
| FQGSIRIFTKKLPHPDLPAEEKEQ [M5I] | 1.66 |
| FQGSPRIFTKKLPHPDLPAEEKEQ [M5P] | 1.87 |
| FQGSERIFTKKLPHPDLPAEEKEQ [M5E] | 2.5 |
| FQGSVRIFTKKLPHPDLPAEEKEQ [M5V] | 2.17 |
| FQGSCRIFTKKLPHPDLPAEEKEQ [M5C] | 2.62 |
| FQGSHRIFTKKLPHPDLPAEEKEQ [M5H] | 1.82 |
| FQGEMRIFTKKLPHPDLPAEEKEQ [S4E] | 2.28 |
| FQGMMRIFTKKLPHPDLPAEEKEQ [S4M] | 4.08 |
| FQGTMRIFTKKLPHPDLPAEEKEQ [S4T] | 1.98 |

| Variant | protein stability index |
| --- | --- |
| FQGNMRIFTKKLPHPDLPAEEKEQ [S4N] | 1.79 |
| FQGIMRIFTKKLPHPDLPAEEKEQ [S4I] | 2.27 |
| FQGPMRIFTKKLPHPDLPAEEKEQ [S4P] | 2.3 |
| FQGQMRIFTKKLPHPDLPAEEKEQ [S4Q] | 2.25 |
| FQGKMRIFTKKLPHPDLPAEEKEQ [S4K] | 2.37 |
| FQGWMRIFTKKLPHPDLPAEEKEQ [S4W] | 2.04 |
| FQGCMRIFTKKLPHPDLPAEEKEQ [S4C] | 1.39 |
| FQGVMRIFTKKLPHPDLPAEEKEQ [S4V] | 1.95 |
| FQGDMRIFTKKLPHPDLPAEEKEQ [S4D] | 1.33 |
| FQGFMRIFTKKLPHPDLPAEEKEQ [S4F] | 1.1 |
| FQGAMRIFTKKLPHPDLPAEEKEQ [S4A] | 2.33 |
| FQGYMRIFTKKLPHPDLPAEEKEQ [S4Y] | 2.25 |
| FQGRMRIFTKKLPHPDLPAEEKEQ [S4R] | 2.46 |
| FQGHMRIFTKKLPHPDLPAEEKEQ [S4H] | 1.69 |
| FQGSMQIFTKKLPHPDLPAEEKEQ [R6Q] | 2.22 |
| FQGSMKIFTKKLPHPDLPAEEKEQ [R6K] | 1.89 |
| FQGSMLIFTKKLPHPDLPAEEKEQ [R6L] | 2.31 |
| FQGSMAIFTKKLPHPDLPAEEKEQ [R6A] | 1.92 |
| FQGSMMIFTKKLPHPDLPAEEKEQ [R6M] | 2.15 |
| FQGSMDIFTKKLPHPDLPAEEKEQ [R6D] | 1.84 |
| FQGSMCIFTKKLPHPDLPAEEKEQ [R6C] | 1.76 |
| FQGSMSIFTKKLPHPDLPAEEKEQ [R6S] | 3.04 |
| FQGSMFIFTKKLPHPDLPAEEKEQ [R6F] | 1.76 |
| FQGSMPIFTKKLPHPDLPAEEKEQ [R6P] | 2.37 |

| Variant | protein stability index |
| --- | --- |
| FQGSMTIFTKKLPHPDLPAEEKEQ [R6T] | 2.01 |
| FQGSMNIFTKKLPHPDLPAEEKEQ [R6N] | 1.3 |
| FQGSMYIFTKKLPHPDLPAEEKEQ [R6Y] | 2.24 |
| FQGSMHIFTKKLPHPDLPAEEKEQ [R6H] | 1.83 |
| FQGSMVIFTKKLPHPDLPAEEKEQ [R6V] | 1.82 |
| FQGSMIIFTKKLPHPDLPAEEKEQ [R6I] | 2.12 |
| FQGSMEIFTKKLPHPDLPAEEKEQ [R6E] | 1.81 |
| FQGSMGIFTKKLPHPDLPAEEKEQ [R6G] | 1.64 |
| FQGSMRLFTKKLPHPDLPAEEKEQ [I7L] | 1.84 |
| FQGSMRRFTKKLPHPDLPAEEKEQ [I7R] | 4.38 |
| FQGSMRKFTKKLPHPDLPAEEKEQ [I7K] | 3.69 |
| FQGSMRFFTKKLPHPDLPAEEKEQ [I7F] | 2.94 |
| FQGSMRTFTKKLPHPDLPAEEKEQ [I7T] | 3.01 |
| FQGSMREFTKKLPHPDLPAEEKEQ [I7E] | 4.04 |
| FQGSMRVFTKKLPHPDLPAEEKEQ [I7V] | 1.99 |
| FQGSMRMFTKKLPHPDLPAEEKEQ [I7M] | 2.44 |
| FQGSMRSFTKKLPHPDLPAEEKEQ [I7S] | 3.38 |
| FQGSMRHFTKKLPHPDLPAEEKEQ [I7H] | 2.97 |
| FQGSMRAFTKKLPHPDLPAEEKEQ [I7A] | 2.56 |
| FQGSMRPFTKKLPHPDLPAEEKEQ [I7P] | 1.93 |
| FQGSMRWFTKKLPHPDLPAEEKEQ [I7W] | 3.05 |
| FQGSMRNFTKKLPHPDLPAEEKEQ [I7N] | 3.65 |
| FQGSMRDFTKKLPHPDLPAEEKEQ [I7D] | 3.85 |
| FQGSMRGFTKKLPHPDLPAEEKEQ [I7G] | 2.89 |

| Variant | protein stability index |
| --- | --- |
| FQGSMRQFTKKLPHPDLPAEEKEQ [I7Q] | 3.65 |
| FQGSMRCFTKKLPHPDLPAEEKEQ [I7C] | 1.8 |
| FQGSMRYFTKKLPHPDLPAEEKEQ [I7Y] | 2.12 |
| FQGSMRIMTKKLPHPDLPAEEKEQ [F8M] | 3.52 |
| FQGSMRIKTKKLPHPDLPAEEKEQ [F8K] | 3.64 |
| FQGSMRIQTKKLPHPDLPAEEKEQ [F8Q] | 3.77 |
| FQGSMRIGTKKLPHPDLPAEEKEQ [F8G] | 3.48 |
| FQGSMRILTKKLPHPDLPAEEKEQ [F8L] | 3.28 |
| FQGSMRIATKKLPHPDLPAEEKEQ [F8A] | 3.6 |
| FQGSMRISTKKLPHPDLPAEEKEQ [F8S] | 3.29 |
| FQGSMRIHTKKLPHPDLPAEEKEQ [F8H] | 3.33 |
| FQGSMRITTKKLPHPDLPAEEKEQ [F8T] | 3.89 |
| FQGSMRICTKKLPHPDLPAEEKEQ [F8C] | 3.05 |
| FQGSMRIRTKKLPHPDLPAEEKEQ [F8R] | 3.59 |
| FQGSMRIWTKKLPHPDLPAEEKEQ [F8W] | 1.56 |
| FQGSMRINTKKLPHPDLPAEEKEQ [F8N] | 3.68 |
| FQGSMRIYTKKLPHPDLPAEEKEQ [F8Y] | 2.35 |
| FQGSMRIVTKKLPHPDLPAEEKEQ [F8V] | 3.04 |
| FQGSMRIITKKLPHPDLPAEEKEQ [F8I] | 3.17 |
| FQGSMRIPTKKLPHPDLPAEEKEQ [F8P] | 3.42 |
| FQGSMRIETKKLPHPDLPAEEKEQ [F8E] | 4.01 |
| FQGSMRIDTKKLPHPDLPAEEKEQ [F8D] | 4.23 |
